Laboratory results from patent publication US20120178796A1 (published 2012).

B3: Myc-tagged SIRT1-ΔExon8 (SIRT1 Δ8 tagged at the C-terminus with c-Myc and 6x His) (enzyme)
chain: ADEAALALQPGGSPSAAGADREAASSPAGEPLRKRPRRDGPGLERSPGEPGGAAPEREVPAAARGCPGAAAAALWREAEAEAAAAGGEQEAQATAAAGEGDNGPGLQGPSREPPLADNLYDEDDDDEGEEEEEAAAAAIGYRDNLLFGDEIITNGFHSCESDEEDRASHASSSDWTPRPRIGPYTFVQQHLMIGTDPRTILKDLLPETIPPPELDDMTLWQIVINILSEPPKRKKRKDINTIEDAVKLLQECKKIIVLTGAGVSVSCGIPDFRSRDGIYARLAVDFPDLPDPQAMFDIEYFRKDPRPFFKFAKEIYPGQFQPSLCHKFIALSDKEGKLLRNYTQNIDTLEQVAGIQRIIQCHGSFATASCLICKYKVDCEAVRGDIFNQVVPRCPRCPADEPLAIMKPEIVFFGENLPEQFHRAMKYDKDEVDLLIVIGSSLKVRPVALIPSNQYLFLPPNRYIFHGAEVYSDSEDDVLSSSSCGSNSDSGTCQSPSLEEPMEDESEIEEFYNGLEDEPDVPERAGGAGFGTDGDDQEAINEAISVKQEVTDMNYPSNKS
notes: Transiently expressed in HCT116 cells, about 95 kDa; Found phosphorylated at S27 and S47 in lysates; also called SIRT1-delta exon 8; SIRT1 D8; not shown: C-terminal c-Myc and 6x His tags
B4: SIRT1-FL (endogenous full length SIRT1) (enzyme, human, UniProt Q96EB6 1-747, looked up)
chain: MADEAALALQPGGSPSAAGADREAASSPAGEPLRKRPRRDGPGLERSPGEPGGAAPEREVPAAARGCPGAAAAALWREAEAEAAAAGGEQEAQATAAAGEGDNGPGLQGPSREPPLADNLYDEDDDDEGEEEEEAAAAAIGYRDNLLFGDEIITNGFHSCESDEEDRASHASSSDWTPRPRIGPYTFVQQHLMIGTDPRTILKDLLPETIPPPELDDMTLWQIVINILSEPPKRKKRKDINTIEDAVKLLQECKKIIVLTGAGVSVSCGIPDFRSRDGIYARLAVDFPDLPDPQAMFDIEYFRKDPRPFFKFAKEIYPGQFQPSLCHKFIALSDKEGKLLRNYTQNIDTLEQVAGIQRIIQCHGSFATASCLICKYKVDCEAVRGDIFNQVVPRCPRCPADEPLAIMKPEIVFFGENLPEQFHRAMKYDKDEVDLLIVIGSSLKVRPVALIPSSIPHEVPQILINREPLPHLHFDVELLGDCDVIINELCHRLGGEYAKLCCNPVKLSEITEKPPRTQKELAYLSELPPTPLHVSEDSSSPERTSPPDSSVIVTLLDQAAKSNDDLDVSESKGCMEEKPQEVQTSRNVESIAEQMENPDLKNVGSSTGEKNERTSVAGTVRKCWPNRVAKEQISRRLDGNQYLFLPPNRYIFHGAEVYSDSEDDVLSSSSCGSNSDSGTCQSPSLEEPMEDESEIEEFYNGLEDEPDVPERAGGAGFGTDGDDQEAINEAISVKQEVTDMNYPSNKS

Tests used:
[1] = molecular target: B3; assay: pull-down / co-immunoprecipitation from HCT116 cells
Protocol: (§1) SIRT1-ΔExon8 was exogenously expressed in HCT116 cells and immuno-precipitated. […] SIRT1-ΔExon8 and Flag-tagged AROS were exogenously expressed in HCT116 cells, and the Flag epitope was immuno-precipitated. In the eluate, AROS was detected by probing with an anti-AROS antibody (Methods), while the interaction with SIRT1-ΔExon8 was probed with anti-c-Myc antibody (9E10, Santa Cruz). C. […] SIRT1-ΔExon8 was exogenously expressed in HCT116 cells and cells were harvested 24 h post-transfection. Cell lysates were immuno-precipitated with anti-c-Myc antibody (9E10, Santa Cruz). Western-blotting was performed with a C-terminal anti-SIRT1 antibody (residues 448-747, H300, Santa Cruz) which detects both endogenous SIRT1-FL and SIRT1-ΔExon8 (see: FIG. 2a). * indicates a non-specific band;

[2] = molecular target: T1, p53 (endogenous, HCT116 p53+/+ cells) (human, UniProt P04637 1-393); assay: immunoprecipitation of exogenous SIRT1 Δ2-9 with His antibody, blotted with p53 antibody
T1 construct: Endogenous protein in cell lysate, detected with anti-p53 DO-1; also called tumour suppressor protein p53; endogenous p53
T1 sequence (P04637 whole entry): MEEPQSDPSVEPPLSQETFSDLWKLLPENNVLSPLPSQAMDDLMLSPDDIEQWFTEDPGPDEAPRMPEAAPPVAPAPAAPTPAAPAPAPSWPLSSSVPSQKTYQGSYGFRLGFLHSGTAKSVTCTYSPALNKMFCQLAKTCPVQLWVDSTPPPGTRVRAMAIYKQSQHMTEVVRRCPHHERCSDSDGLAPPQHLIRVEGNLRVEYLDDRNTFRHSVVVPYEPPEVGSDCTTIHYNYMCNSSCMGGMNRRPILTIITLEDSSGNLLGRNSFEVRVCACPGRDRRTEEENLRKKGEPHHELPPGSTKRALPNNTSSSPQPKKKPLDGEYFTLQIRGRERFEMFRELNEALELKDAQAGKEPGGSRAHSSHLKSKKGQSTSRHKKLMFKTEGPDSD

[3] = molecular target: T2, DBC-1 (endogenous, HCT116 cells) (human, UniProt Q8N163 1-923); assay: immunoprecipitation of exogenous SIRT1-ΔExon8 from HCT116 cells, eluate probed with anti-DBC-1
T2 construct: Endogenous protein in cell lysate, probed with anti-DBC-1; also called endogenous DBC-1
T2 sequence (Q8N163 whole entry): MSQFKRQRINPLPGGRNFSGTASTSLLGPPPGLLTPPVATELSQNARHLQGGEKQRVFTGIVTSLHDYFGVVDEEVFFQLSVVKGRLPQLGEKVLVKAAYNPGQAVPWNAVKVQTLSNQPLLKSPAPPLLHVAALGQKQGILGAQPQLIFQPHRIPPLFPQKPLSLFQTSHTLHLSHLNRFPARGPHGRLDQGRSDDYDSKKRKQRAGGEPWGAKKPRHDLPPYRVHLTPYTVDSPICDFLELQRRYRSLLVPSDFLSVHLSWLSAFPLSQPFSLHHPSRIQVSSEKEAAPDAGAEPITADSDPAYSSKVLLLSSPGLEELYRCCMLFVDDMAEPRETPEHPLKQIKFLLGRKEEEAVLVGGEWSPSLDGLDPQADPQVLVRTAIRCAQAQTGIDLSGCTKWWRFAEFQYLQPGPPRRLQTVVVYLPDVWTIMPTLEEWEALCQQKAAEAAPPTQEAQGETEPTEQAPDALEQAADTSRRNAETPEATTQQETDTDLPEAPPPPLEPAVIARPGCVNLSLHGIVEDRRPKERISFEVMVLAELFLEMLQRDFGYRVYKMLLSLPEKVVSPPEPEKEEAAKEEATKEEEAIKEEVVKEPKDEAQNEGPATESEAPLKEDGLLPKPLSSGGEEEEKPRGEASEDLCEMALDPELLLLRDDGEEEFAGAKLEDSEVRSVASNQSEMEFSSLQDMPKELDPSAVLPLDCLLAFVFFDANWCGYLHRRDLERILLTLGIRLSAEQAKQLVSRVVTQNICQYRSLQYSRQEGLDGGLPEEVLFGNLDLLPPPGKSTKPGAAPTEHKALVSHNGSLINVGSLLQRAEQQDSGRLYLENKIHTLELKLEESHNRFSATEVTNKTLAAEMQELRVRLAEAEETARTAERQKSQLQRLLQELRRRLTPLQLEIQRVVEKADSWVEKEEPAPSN
Protocol: as §1

[4] = molecular target: B4; assay: immunoprecipitation with anti-c-Myc 9E10 from HCT116 lysates, Western blot with H300 anti-SIRT1
Protocol: as §1

[5] = molecular target: T1, p53 (endogenous, HCT116 p53+/+ cells); assay: cell-based or functional assay

B1: Flag-tagged AROS (other, UniProt Q86WX3 1-136, looked up, not shown: small tags and cut ends)
chain: MSAALLRRGLELLAASEAPRDPPGQAKPRGAPVKRPRKTKAIQAQKLRNSAKGKVPKSALDEYRKRECRDHLRVNLKFLTRTRSTVAESVSQQILRQNRGRKACDRPVAKTKKKKAEGTVFTEEDFQKFQQEYFGS
notes: its order in the chain is arbitrary
B1: binds [1].

B2: Myc-His-SIRT1 Δ2-9 (MH-SIRT1 Δ2-9) (other, not shown: small tags and cut ends)
chain: MADEAALALQPGGSPSAAGADREAASSPAGEPLRKRPRRDGPGLERSPGEPGGAAPEREVPAAARGCPGAAAAALWREAEAEAAAAGGEQEAQATAAAGEGDNGPGLQGPSREPPLADNLYDEDDDDEGEEEEEAAAAAIGYRDNLLFVLVAVTVIVGHARVQV
notes: Expressed in HCT116 p53+/+ cells from pcDNA3.1; Serine 47 found phosphorylated; also called exogenous SIRT1 Δ2-9
B2: binds [2].

B3: no binding [3]; no binding [4].

For B4, the “p53 acetylation levels following SIRT1 FL depletion (siRNA) under basal conditions in HCT116 cells, immunoblot” value [5] was greater than 50 fold.
